From article PMC7749166 (Communications Biology, 2020)
Like-named read-outs stand apart in the source and are kept apart here. Bridge positions count the residues as written; N and C are the ends. Square brackets hold non-standard residues; d marks the D form. Ends that are not written are not given here. dCha = N[C@H](CC1CCCCC1)C(=O)O; Orn = NCCC[C@H](N)C(=O)O

What was measured:
C5aR [1] = settings: cited from earlier work
Text: GPCRs represent the largest human membrane protein family, having overall more than 800 members, and constitute a “control panel” of the cell[27]. […] However, the peptidic nat ...

C5aR [2] = settings: cited from earlier work; remark: listed apart in the source
Text: G-protein-coupled receptors (GPCRs) are a large family of versatile and dynamic cell surface receptors expressed in almost all tissue types. Upon ligand binding to highly conserved orthosteric binding sites, GPCR pass from a quiescent to an active state, initiating signal transduction. The conservation of orthosteric binding sites throughout the GPCR superfamily and a poor understanding of the mechanism underneath their activation cycle are two key factors currently hampering the development of specific drugs towards a specific sub-type in a GPCR family. […] We simultaneously recorded FD-based AFM height images and adhesion maps (Fig. 3b, c) and extracted FD curves located on C5aR having their native orientation (based on our height criterion) (Fig. 3d). Generally, force-probing methods such as FD-based AFM measure the strength of single bonds under an externally applied force. Described first by the Bell-Evans model, an external force stressing a bond reduces the activation-energy barri ...

[3] = target: T1, C5aRΔTyr mutant (Y11F and Y14F), reconstituted in DOPC/CHS liposomes (human, UniProt P21730 1-350, Y11F | Y14F); assay: AFM dynamic force spectroscopy (FV- and FD-based AFM, Friddle-Noy-de Yoreo fit); C5a tethered by its N-terminal His6-tag to a tris-NTA-Ni2+ PEG27 tip; C5aR (wild type, mutant, or wild type incubated with PMX53) in DOPC/CHS liposomes adsorbed on mica; imaging buffer 20 mM HEPES, 300 mM NaCl; ≈24 °C; Kd calculated from ΔGbu = kbT × ln(0.018 Kd); settings: both partners purified
T1 construct: C5a anaphylatoxin chemotactic receptor 1 (C5aR), human; lack of tyrosine sulfonation validated by western blot; The methods print the mutations as 'Y11F and F14F'; the results print Y11F and Y14F; also called C5aR∆Tyr; source: HEK-293S GnTI- cells (BacMam), purified, reconstituted in DOPC/CHS liposomes
T1 sequence (looked up): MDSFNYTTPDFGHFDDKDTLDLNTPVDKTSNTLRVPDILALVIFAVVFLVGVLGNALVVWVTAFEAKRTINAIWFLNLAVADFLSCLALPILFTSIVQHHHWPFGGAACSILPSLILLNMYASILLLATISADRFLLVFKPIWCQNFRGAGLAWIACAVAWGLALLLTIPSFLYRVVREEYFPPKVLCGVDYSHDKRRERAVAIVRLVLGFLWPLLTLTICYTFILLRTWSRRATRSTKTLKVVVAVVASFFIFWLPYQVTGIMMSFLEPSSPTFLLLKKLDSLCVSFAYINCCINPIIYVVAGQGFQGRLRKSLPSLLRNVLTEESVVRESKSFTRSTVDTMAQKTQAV

[4] = target: T2, wild type C5a anaphylatoxin chemotactic receptor 1 (C5aR), reconstituted in DOPC/CHS liposomes (human, UniProt P21730 1-350, sulfonated tyrosine residues (Y11 and Y14)); assay: as above; settings: both partners purified
T2 construct: C5a anaphylatoxin chemotactic receptor 1 (C5aR), human; wild type; Receptors lie in both orientations in the bilayer; also called C5aR^WT; wtC5aR; source: HEK-293S GnTI- cells (BacMam), purified (Ni-NTA, anti-Flag M1 resin, SEC), reconstituted in DOPC/CHS liposomes; not shown: His8, C-terminal, kept
T2 sequence (looked up): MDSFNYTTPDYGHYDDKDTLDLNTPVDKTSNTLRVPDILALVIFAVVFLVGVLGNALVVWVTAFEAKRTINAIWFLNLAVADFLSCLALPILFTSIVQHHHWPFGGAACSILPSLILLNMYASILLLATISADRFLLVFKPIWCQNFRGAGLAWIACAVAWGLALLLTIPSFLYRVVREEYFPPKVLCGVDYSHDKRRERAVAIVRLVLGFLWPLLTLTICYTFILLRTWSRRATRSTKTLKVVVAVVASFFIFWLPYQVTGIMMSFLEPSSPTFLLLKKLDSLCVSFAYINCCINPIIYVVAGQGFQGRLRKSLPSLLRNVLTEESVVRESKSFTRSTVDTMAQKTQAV

[5] = target: C5aR^WT incubated with PMX53 (effector site blocked) (human) (UniProt P21730); assay: as above
[6] = target: T2, wild type C5a anaphylatoxin chemotactic …; assay: AFM dynamic force spectroscopy (FV- and FD-based AFM, Friddle-Noy-de Yoreo fit); PMX53-Gly3-Cys coupled by its Cys to a PEG27-maleimide tip; C5aR (wild type or mutant) in DOPC/CHS liposomes adsorbed on mica; imaging buffer 20 mM HEPES, 300 mM NaCl; ≈24 °C; Kd calculated from ΔGbu = kbT × ln(0.018 Kd); settings: both partners purified

## Ace-Phe-[{Orn}-Pro-{D-Cha}-Trp-Arg] (sidechain bridge or staple) [PMX53, cyclic antagonist peptide that mimics the C-terminal structure of the endogenous C5a ligand]
C5aR [1]
  antagonist action: potent orthosteric antagonist with insurmountable action
C5aR [2]
  affinity towards the effector site: nanomolar affinity

## Cc1ccc(NC(=O)[C@H]2CCCN(C(=O)c3c(C)cccc3F)[C@H]2c2ccc(NC3CCCC3)cc2)cc1C(F)(F)F [avacopan]
C5aR [1]; recent structural studies
  antagonist action: allosteric modulators with highly reversible action
C5aR [1]; to advance into late-stage clinical trials
  therapeutic efficacy: sufficient therapeutic efficacy

## CCCCn1c(-c2ccccc2)nc(-c2ccccc2)c1CN(Cc1ccc2c(c1)OCO2)Cc1ccc2c(c1)OCO2 [NDT9513727]
C5aR [1]; recent structural studies
  antagonist action: allosteric modulators with highly reversible action

B1: complement C5a anaphylatoxin with N-terminal His6-tag (ligand, human, UniProt P01031 678-751, looked up)
chain: TLQKKIEEIAAKYKHSVVKKCCYDGACVNNDETCEQRAARISLGPRCIKAFTECCVVASQLRANISHKDMQLGR
notes: C5a anaphylatoxin, the 74-amino acid cut product of complement C5; numbers count on: C5a itself (R74 is its C-terminal residue); Tethered by its His6-tag to a tris-NTA-Ni2+ PEG27 AFM tip; C5a from R&D Systems is named only for the GTPgammaS assay; also called C5a ligand; endogenous C5a ligand; not shown: His6, N-terminal, kept
[3]
  Kd: ~20 mM
[4]
  Kd: ~4.5 nM
[5]
  Kd: 800 mM
  equilibrium force Feq: 29 pN
  residence time τ0.5: 0.2 ms

B2: PMX53-Gly3-Cys (Cys-Gly3-Phe-[{Orn}Pro-{D-Cha}-Trp-Arg]) (peptide)
chain: CGGGF[Orn]P[dCha]WR
modifications: lactam 6-C; not fully specified; printed as Cys-Gly3-Phe-[{Orn}Pro-{D-Cha}-Trp-Arg]
[6]
  Kd: 4.7 nM
